From patent US20220064330A1

How the values were obtained:
[1] = target: complement C3 (UniProt P01024)
[2] = target: complement C3, P01024
complement C3, P01024, sequence (P01024 whole entry, looked up): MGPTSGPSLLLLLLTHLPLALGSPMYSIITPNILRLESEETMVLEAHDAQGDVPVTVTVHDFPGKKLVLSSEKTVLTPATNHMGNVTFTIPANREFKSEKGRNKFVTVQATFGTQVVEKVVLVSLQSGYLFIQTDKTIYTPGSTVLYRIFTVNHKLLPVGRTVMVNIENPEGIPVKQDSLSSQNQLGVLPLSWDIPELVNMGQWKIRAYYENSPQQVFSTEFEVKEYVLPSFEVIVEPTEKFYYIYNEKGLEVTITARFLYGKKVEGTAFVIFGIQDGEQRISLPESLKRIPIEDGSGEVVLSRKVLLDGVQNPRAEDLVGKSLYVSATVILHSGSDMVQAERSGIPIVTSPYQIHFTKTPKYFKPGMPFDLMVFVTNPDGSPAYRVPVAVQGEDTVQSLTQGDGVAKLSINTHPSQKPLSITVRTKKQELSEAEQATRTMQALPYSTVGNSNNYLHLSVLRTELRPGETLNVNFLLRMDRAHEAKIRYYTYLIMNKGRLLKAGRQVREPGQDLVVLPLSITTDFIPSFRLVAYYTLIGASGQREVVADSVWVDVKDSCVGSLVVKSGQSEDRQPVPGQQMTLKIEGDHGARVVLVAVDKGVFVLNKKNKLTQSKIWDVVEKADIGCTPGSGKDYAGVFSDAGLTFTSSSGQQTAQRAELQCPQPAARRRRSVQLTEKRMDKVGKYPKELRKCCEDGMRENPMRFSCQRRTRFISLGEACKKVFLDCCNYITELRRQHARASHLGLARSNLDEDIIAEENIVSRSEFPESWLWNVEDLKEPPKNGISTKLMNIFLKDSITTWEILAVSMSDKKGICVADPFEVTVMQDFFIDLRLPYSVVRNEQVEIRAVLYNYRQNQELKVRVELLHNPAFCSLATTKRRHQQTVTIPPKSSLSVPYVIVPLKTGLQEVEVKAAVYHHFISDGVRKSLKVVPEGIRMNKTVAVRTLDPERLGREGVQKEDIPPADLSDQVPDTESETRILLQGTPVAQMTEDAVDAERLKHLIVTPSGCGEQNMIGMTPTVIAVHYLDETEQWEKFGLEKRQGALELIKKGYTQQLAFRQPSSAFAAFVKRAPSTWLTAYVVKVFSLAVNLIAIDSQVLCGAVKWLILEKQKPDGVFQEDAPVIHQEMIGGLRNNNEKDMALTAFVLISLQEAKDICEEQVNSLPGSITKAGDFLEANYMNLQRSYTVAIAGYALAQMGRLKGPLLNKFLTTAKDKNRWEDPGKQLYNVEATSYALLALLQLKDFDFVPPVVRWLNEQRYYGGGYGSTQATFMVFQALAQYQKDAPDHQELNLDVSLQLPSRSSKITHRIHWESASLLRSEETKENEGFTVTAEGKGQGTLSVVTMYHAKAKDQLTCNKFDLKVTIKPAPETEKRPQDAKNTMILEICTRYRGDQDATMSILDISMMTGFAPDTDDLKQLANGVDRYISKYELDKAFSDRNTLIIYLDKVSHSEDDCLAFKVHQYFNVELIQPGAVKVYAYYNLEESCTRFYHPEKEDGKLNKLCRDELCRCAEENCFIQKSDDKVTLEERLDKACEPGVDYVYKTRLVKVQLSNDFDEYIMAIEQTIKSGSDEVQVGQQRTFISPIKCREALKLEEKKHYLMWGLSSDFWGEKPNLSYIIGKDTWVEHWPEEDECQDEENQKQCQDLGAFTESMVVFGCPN

| Molecule | cleavage of the C3 a-chain to the a' chain (Western blot) [1] | cleavage of the C3 a-chain to the a' chain (Western blot) [2] |
| --- | --- | --- |
| human FXa (activated human clotting factor X) | can cleave C3 in vitro in the absence of any complement proteases | – |
| human FXIa (activated human clotting factor XI) | can cleave C3 in vitro in the absence of any complement proteases | – |
| bovine FXa (activated bovine clotting factor X) (protein) ANSFLEEVKQGNLERECLEEACSLEEAREVFEDAEQTDEFWSKYKDGDQCEGHPCLNQGHCKDGIGDYTCTCAEGFEGKNCEFSTREICSLDNGGCDQFCREERSEVRCSCAHGYVLGDDSKSCVSTERFPCGKFTQGRSRRWAIHTSEDALDASELEHYDPADLSPTESSLDLLGLNRTEPSAGEDGSQVVRIVGGRDCAEGECPWQALLVNEENEGFCGGTILNEFYVLTAAHCLHQAKRFTVRVGDRNTEQEEGNEMAHEVEMTVKHSRFVKETYDFDIAVLRLKTPIRFRRNVAPACLPEKDWAEATLMTQKTGIVSGFGRTHEKGRLSSTLKMLEVPYVDRSTCKLSSSFTITPNMFCAGYDTQPEDACQGDSGGPHVTRFKDTYFVTGIVSWGEGCARKGKFGVYTKVSNFLKWIDKIMKARAGAAGSRGHSEAPATWTVPPPLPL | – | can cleave C3 in vitro in the absence of any complement proteases |
